Assay results reported in US20140271478A1 (University of California, published 2014).

T1: human integrin β8 swap construct RKMALY (SEQ ID NO:129) (human, UniProt P26012 43-769)
T1 sequence: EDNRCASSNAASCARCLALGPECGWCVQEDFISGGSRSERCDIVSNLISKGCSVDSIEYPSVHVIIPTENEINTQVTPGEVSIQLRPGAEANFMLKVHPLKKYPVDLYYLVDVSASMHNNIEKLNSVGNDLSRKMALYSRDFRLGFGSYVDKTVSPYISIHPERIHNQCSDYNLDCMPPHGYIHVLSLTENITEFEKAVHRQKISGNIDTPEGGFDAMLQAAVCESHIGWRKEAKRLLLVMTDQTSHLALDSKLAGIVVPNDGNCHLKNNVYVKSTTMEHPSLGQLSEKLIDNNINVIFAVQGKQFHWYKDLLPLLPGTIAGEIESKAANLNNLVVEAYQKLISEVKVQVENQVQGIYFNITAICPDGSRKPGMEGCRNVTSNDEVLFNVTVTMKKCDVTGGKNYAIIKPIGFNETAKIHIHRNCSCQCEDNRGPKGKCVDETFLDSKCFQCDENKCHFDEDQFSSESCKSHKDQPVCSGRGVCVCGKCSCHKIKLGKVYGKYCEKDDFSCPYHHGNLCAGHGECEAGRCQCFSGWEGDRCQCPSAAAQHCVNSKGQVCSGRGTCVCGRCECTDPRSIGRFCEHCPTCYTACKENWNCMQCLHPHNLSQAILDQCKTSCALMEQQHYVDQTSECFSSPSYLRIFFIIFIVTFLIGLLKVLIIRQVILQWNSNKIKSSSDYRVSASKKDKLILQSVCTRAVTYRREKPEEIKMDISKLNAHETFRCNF

T2: human integrin β8 swap construct RKMAFY (SEQ ID NO:130) (human, UniProt P26012 43-769)
T2 sequence: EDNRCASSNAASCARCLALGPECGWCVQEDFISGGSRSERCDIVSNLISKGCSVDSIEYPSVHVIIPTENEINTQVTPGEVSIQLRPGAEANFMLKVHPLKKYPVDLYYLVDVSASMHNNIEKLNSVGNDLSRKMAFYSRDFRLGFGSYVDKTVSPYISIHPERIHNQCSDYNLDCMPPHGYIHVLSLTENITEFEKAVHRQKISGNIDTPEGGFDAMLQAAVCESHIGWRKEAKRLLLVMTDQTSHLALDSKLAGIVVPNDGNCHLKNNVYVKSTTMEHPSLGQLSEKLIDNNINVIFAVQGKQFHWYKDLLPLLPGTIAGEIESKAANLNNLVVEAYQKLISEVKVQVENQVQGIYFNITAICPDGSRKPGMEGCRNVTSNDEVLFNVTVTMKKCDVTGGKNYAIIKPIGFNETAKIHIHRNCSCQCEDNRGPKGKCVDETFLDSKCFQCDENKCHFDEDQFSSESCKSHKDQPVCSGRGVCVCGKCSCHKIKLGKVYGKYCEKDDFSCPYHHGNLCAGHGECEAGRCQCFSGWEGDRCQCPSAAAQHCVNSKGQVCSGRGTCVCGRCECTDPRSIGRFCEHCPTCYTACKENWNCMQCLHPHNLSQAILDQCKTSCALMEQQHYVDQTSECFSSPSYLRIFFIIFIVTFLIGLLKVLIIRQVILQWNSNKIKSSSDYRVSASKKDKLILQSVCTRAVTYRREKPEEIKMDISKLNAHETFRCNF

T3: human integrin β8 swap construct KKMAFF (SEQ ID NO:133) (human, UniProt P26012 43-769)
T3 sequence: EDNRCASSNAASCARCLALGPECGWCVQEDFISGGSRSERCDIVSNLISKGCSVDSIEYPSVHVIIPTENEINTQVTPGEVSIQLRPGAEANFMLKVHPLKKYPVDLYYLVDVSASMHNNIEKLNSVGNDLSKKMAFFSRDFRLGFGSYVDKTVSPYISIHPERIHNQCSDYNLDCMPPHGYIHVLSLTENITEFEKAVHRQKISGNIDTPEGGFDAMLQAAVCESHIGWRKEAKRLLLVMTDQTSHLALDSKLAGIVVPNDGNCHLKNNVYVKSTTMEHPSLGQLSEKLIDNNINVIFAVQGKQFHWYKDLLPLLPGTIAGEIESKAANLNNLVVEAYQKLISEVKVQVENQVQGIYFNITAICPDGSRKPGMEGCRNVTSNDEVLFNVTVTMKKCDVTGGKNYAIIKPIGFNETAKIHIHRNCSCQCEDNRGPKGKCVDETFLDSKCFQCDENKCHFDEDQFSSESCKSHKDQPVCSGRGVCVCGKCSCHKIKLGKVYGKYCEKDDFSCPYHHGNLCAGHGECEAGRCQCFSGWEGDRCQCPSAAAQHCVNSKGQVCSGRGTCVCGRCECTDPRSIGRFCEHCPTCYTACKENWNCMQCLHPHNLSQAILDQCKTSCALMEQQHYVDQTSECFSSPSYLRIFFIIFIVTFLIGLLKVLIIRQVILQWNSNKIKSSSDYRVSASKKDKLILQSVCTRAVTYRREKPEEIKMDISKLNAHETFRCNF


What was measured:
Assay in all cases: cell staining of β8 amino acid swap constructs (175-180)
[1] = molecular target: T1, human integrin β8 swap construct RKMALY …
[2] = molecular target: T2, human integrin β8 swap construct RKMAFY …
[3] = molecular target: T3, human integrin β8 swap construct KKMAFF …
[4] = molecular target: T4, human integrin αβ8 (αvβ8) expressed on cells (human, UniProt P06756 31-1048)
T4 construct: whole, on cells; β8 transfected into or endogenous on cells, unfixed or formalin fixed; also called human integrin β8; ITGB8
T4 sequence (P06756 31-1048): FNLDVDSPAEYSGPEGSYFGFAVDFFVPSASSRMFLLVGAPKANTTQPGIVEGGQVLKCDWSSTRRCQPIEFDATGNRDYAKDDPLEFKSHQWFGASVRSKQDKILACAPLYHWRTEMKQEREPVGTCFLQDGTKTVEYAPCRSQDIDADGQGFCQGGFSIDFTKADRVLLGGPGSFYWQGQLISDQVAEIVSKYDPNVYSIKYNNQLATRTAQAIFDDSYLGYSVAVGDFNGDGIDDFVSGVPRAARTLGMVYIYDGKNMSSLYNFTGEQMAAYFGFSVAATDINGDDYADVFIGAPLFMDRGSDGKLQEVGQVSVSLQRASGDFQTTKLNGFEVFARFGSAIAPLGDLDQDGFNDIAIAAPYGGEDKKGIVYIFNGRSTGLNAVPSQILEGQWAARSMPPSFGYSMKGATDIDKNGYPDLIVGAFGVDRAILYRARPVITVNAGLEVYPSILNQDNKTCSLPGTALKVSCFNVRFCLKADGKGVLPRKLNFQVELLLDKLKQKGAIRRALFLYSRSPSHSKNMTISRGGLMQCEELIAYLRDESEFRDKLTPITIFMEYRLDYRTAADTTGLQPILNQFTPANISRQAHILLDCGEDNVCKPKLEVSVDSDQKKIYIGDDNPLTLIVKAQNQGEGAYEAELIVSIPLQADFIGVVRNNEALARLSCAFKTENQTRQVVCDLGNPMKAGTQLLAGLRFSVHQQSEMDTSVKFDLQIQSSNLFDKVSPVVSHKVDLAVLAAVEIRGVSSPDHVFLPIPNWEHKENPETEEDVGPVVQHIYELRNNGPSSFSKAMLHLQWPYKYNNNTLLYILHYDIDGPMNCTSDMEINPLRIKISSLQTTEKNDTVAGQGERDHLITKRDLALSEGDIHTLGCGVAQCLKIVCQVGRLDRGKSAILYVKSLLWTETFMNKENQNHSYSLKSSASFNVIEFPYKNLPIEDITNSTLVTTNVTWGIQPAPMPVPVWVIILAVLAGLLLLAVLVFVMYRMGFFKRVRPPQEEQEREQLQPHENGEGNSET

Binder	% positive [1] [%]	% positive [2] [%]	% positive [3] [%]	% positive [4] [%]
37E1B5 antibody (antibody, V domains shown) VH: EVQLVESGGGLVQPGGSLNLSCAVSGFVFSRYWMSWVRQAPGKGLEWIGEINPDSSTINYTSSLKDKFIISRDNAKNTLYLQMNKVRSEDTALYYCACLITTEDYWGQGTSVTVSS VL: QIVLTQSPSSMYASLGERVTIPCKASQDINSYLSWFQQKPGKSPKTLIYYANRLVDGVPSRFSGSGSGQDYSLTISSLEYEDMGIYYCLQYDEFPYTFGGGTKLEIK	14	89	116	108
14E5 antibody (antibody, V domains shown, Mouse hybridoma antibody; also called hybridoma clone 14E5) VH: EVQLQQSGAELMKPGASVKISCKATGYTFSTYWIEWIKQRPGHGLEWIGHILPGSVITNYNEKFKGKAAITADTSSNTSYMQLSSLTSEDSAVYYCARWGWDSYWGQGTLVTVSS VL: DIEMTQSPSSLSASLGDRVTISCSTSQDISSSLNWYQQKPDGTVTLLIYYTSNLHSGVPSRFSGSGSGTDYSLTISNLEPEDIATYYCQQYSKLPYTFGGGTKLEIKR	1	6	9	112
11E8 antibody (antibody, V domains shown, Mouse hybridoma antibody) VH: EVQLQQSGPELMKTGASVKISCKATGYTFSSYWIEWVKQRPGHGLEWIGDILPGSGTTNYNEKFKGRATVTADRSSNTAYMQLSSLTYGDSAVYYCATWGWDTYWDQGTSVTVSS VL: DIVMTQSPSSLSASLGDRVTISCSASQGISNYLNWYQQKPDGTVKLLIYYTSSLHSGVPSRFSGSGSGTDYSLTISNLEPEDIATYYCQQYSNLPYTFGGGTKLEIKR	4	108	115	97
